Earlier results on one substance are cited in PMC12384831.

pKd: −log10 of the molar value. Values joined by “and” are separate entries in the source; they are usually repeats but may differ in a detail not shown here. Identical values can stand only once.

The target in the data set is VISTA (Homo sapiens) (UniProt Q9H7M9).
Sequence of UniProt Q9H7M9 (Q9H7M9 33-194): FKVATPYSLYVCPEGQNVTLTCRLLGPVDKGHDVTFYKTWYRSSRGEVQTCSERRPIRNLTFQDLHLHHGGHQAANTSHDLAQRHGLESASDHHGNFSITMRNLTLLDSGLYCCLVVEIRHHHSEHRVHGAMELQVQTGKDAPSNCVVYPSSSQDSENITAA

What is called pKd is the Kd on a negative log10 scale, so that one unit is a factor of ten. On to IGSF11 (from UniProt Q5DX21), for which the pKd was 7.70 and 7.10.
